Source: patent publication US20170334985A1 (Genentech, published 2017)

T1: human IL-17AF heterodimer (human, UniProt Q16552 24-155; Q96PD4 31-163, limits assumed)
T1 sequence 1: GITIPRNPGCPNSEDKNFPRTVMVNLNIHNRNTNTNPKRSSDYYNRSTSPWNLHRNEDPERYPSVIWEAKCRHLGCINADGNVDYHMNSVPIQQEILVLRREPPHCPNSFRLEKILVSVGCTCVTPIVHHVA
T1 sequence 2: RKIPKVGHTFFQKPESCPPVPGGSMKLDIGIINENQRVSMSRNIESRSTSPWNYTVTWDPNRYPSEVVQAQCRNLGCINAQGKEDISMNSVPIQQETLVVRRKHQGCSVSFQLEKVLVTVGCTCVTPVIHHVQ

T2: human IL-17FF (human, UniProt Q96PD4 31-163)
T2 sequence: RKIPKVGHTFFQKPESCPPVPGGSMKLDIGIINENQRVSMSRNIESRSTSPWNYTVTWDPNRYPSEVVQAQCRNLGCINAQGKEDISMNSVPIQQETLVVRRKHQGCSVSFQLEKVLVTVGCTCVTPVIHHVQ

T3: cynomolgus monkey IL-13 (cynomolgus monkey, UniProt Q5I6E4 19-132 (Macaca thibetana entry), limits assumed)
T3 construct: also called cyno IL-13
T3 chain: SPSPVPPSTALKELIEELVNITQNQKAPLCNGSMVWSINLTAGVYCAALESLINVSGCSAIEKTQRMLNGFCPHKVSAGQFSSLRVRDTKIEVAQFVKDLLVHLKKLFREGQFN

T4: human IL-17AA (human, UniProt Q16552 20-155, limits assumed)
T4 construct: Bought from R&D Systems, cat #317-ILB-050; also called IL-17A homodimer
T4 sequence: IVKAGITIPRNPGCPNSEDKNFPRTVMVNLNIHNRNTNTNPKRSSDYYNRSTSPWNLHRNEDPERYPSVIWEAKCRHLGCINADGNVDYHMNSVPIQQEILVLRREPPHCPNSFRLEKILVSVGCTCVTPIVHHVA

T5: cyno IL-17AA (cynomolgus monkey, UniProt A0A2K5TTB0 24-155)
T5 construct: Recombinant protein in the SPR assay; also called cynomolgus monkey IL-17AA; IL-17A homodimer (cynomolgus monkey)
T5 sequence: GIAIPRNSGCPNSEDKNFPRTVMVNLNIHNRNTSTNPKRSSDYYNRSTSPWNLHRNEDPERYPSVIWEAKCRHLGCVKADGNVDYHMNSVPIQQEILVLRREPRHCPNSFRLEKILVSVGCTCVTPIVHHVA


Tests used:
[1] = target: T1, human IL-17AF heterodimer; test: cell-based or functional assay
human IL-17FF = target: T2, human IL-17FF; test: cell-based or functional assay
human IL-13 = target: T6, human IL-13 (human, UniProt P35225 35-146, limits assumed); test: SPR (BIAcore T200), antibody captured by anti-human Fc on CM5 chip, cytokine injected, 25 C, 1:1 Langmuir model
T6 construct: also called recombinant human IL-13
Procedure: (§1) Binding affinities of the anti-IL-17/anti-IL-13 bispecific antibody against human and cynomolgus monkey IL-13 cytokines were measured with a BIAcore™-T200 instrument. Anti-IL-13 antibody was captured by mouse anti-human Fc antibody (GE Healthcare, cat #BR-1008-39) coated on CM5 biosensor chips to achieve approximately 500 response units (RU). Four-fold serial dilutions (50 nM to 49 pM) of human IL-13, human IL-13R130Q (a common IL-13 variant associated with allergy and asthma, see Vladich et al., 2005, J. Clin Invest., 115:747-754), and cyno IL-13 were injected in FIBS-P buffer (GE Healthcare) at 25° C. with a flow rate of 30 μl/min. Association rates (kₒₙ) and dissociation rates (koff) were calculated using a simple one-to-one Langmuir binding model (BIAcore T200 Evaluation Software version 2.0). The equilibrium dissociation constant (KD) was calculated as the ratio koff/kₒₙ.

human IL-13 R130Q = target: T7, human IL-13 R130Q (human, UniProt P35225 35-146, limits assumed); test: as above
T7 construct: Common IL-13 variant
Procedure: as §1

cynomolgus monkey IL-13 = target: T3, cynomolgus monkey IL-13; test: as above
Procedure: as §1

human IL-17AA = target: T4, human IL-17AA; test: SPR (BIAcore T200), bispecific antibody captured by anti-human Fc on CM5 chip, cytokine injected, 25 C, 1:1 Langmuir model
Procedure: (§2) Binding affinities of anti-IL-17/anti-IL-13 bispecific antibody against various IL-17 cytokines were measured by Surface Plasmon Resonance (SRP) using a BIAcore™-T200 instrument. Anti-IL-17/anti-IL-13 bispecific antibody was captured by mouse anti-human Fc antibody (GE Healthcare, cat #BR-1008-39) coated on CM5 biosensor chips to achieve approximately 500 response units (RU). For kinetics measurements, five-fold serial dilutions (20 nM to 32 pM) of human IL-17AA (R&D Systems, cat #317-ILB-050), human IL-17AF heterodimer, human IL-17FF (R&D Systems, cat #1335-IL-025/CF), cyno IL-17AA, cyno IL-17AF, and cyno IL-17FF were injected in HBS-P buffer (GE Healthcare) at 25° C. with a flow rate of 30 μl/min. Association rates (kₒₙ) and dissociation rates (koff) were calculated using a simple one-to-one Langmuir binding model (BlAcore T200 Evaluation Software version 2.0). The equilibrium dissociation constant (KD) was calculated as the ratio koff/kₒₙ.

cyno IL-17AA = target: T5, cyno IL-17AA; test: as above
Procedure: as §2

T6 sequence (P35225 other isoform, or with tags, fused parts or gaps limits assumed): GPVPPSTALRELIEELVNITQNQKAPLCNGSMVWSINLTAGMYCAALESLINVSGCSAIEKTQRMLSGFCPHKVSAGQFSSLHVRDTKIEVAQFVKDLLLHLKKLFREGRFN
T7 sequence (P35225 35-146 limits assumed, stated change not applied): as the sequence (P35225 other isoform, or with tags, fused parts or gaps limits assumed) above, with R110Q counted along it

| Binder | IC90 (molar ratio), inhibition of IL-17AF-induced G-CSF expression in normal human foreskin fibroblasts (ELISA) [1] | IC90 (molar ratio), inhibition of IL-17FF-induced G-CSF expression in normal human foreskin fibroblasts (ELISA) (human IL-17FF) | Kd (human IL-13) | koff (human IL-13) | kon (human IL-13) | Kd (human IL-13 R130Q) | koff (human IL-13 R130Q) | kon (human IL-13 R130Q) | Kd (cynomolgus monkey IL-13) | koff (cynomolgus monkey IL-13) | kon (cynomolgus monkey IL-13) | Kd (human IL-17AA) | koff (human IL-17AA) | kon (human IL-17AA) | Kd (cyno IL-17AA) | koff (cyno IL-17AA) | kon (cyno IL-17AA) |
| --- | --- | --- | --- | --- | --- | --- | --- | --- | --- | --- | --- | --- | --- | --- | --- | --- | --- |
| Parental anti-IL17 antibody (antibody, V domains shown) VH: EVQLVESGGGLVQPGRSLRLSCAASGFTFDDYAMHWVRQAPGKGLEWVSGINWSSGGIGYADSVKGRFTISRDNAKNSLYLQMNSLRAEDTALYYCARDIGGFGEFYWNFGLWGRGTLVTVSS VL: not shown | ~1 molar ratio | ~1 molar ratio |  |  |  |  |  |  |  |  |  |  |  |  |  |  |  |
| anti-IL-13/IL-17 bispecific antibody (bispecific antibody, human IgG4 S228P, Knobs-into-holes human IgG4; also called anti-IL-17/anti-IL-13 bispecific antibody; anti-IL-13/IL-17 IgG4 bispecific antibody) heavy 1: not shown VL 1: DIVLTQSPDSLSVSLGERATINCRASKSVDSYGNSFMHWYQQKPGQPPKLLIYLASNLESGVPDRFSGSGSGTDFTLTISSLQAEDVAVYYCQQNNEDPRTFGGGTKVEIKR heavy 2: EVQLVESGGGLVQPGRSLRLSCAASGFTFDDYAMHWVRQAPGKGLEWVSGINWSSGGIGYADSVKGRFTISRDNAKNSLYLQMNSLRAEDTALYYCARDIGGFGEFYWNFGLWGRGTLVTVSSASTKGPSVFPLAPCSRSTSESTAALGCLVKDYFPEPVTVSWNSGALTSGVHTFPAVLQSSGLYSLSSVVTVPSSSLGTKTYTCNVDHKPSNTKVDKRVESKYGPPCPPCPAPEFLGGPSVFLFPPKPKDTLMISRTPEVTCVVVDVSQEDPEVQFNWYVDGVEVHNAKTKPREEQFNSTYRVVSVLTVLHQDWLNGKEYKCKVSNKGLPSSIEKTISKAKGQPREPQVYTLPPSQEEMTKNQVSLSCAVKGFYPSDIAVEWESNGQPENNYKTTPPVLDSDGSFFLVSRLTVDKSRWQEGNVFSCSVMHEALHNHYTQKSLSLSLGK VL 2: not shown |  |  | 0.0355 nM | 2.07e-05 s⁻¹ | 584000 M⁻¹ s⁻¹ | < 0.001 nM | < 1e-06 s⁻¹ | 864000 M⁻¹ s⁻¹ | < 0.001 nM | < 1e-06 s⁻¹ | > 1e+06 M⁻¹ s⁻¹ | 0.021 nM | 0.000118 s⁻¹ | 5.55e+06 M⁻¹ s⁻¹ | 0.033 nM | 0.000291 s⁻¹ | 8.89e+06 M⁻¹ s⁻¹ |
